# Test results from publication doi:10.1101/473132 (bioRxiv, 2018).
# B1: Swi6 (S. pombe HP1 protein) (natural protein)
# chain: MKKGGVRSYRRSSTSKRSVIDDDSEPELPSMTKEAIASHKADSGSSDNEVESDHESKSSSKKLKENAKEEEGGEEEEEDEYVVEKVLKHRMARKGGGYEYLLKWEGYDDPSDNTWSSEADCSGCKQLIEAYWNEHGGRPEPSKRKRTARPKKPEAKEPSPKSRKTDEDKHDKDSNEKIEDVNEKTIKFADKSQEEFNENGPPSGQPNGHIESDNESKSPSQKESNESEDIQIAETPSNVTPKKKPSPEVPKLPDNRELTVKQVENYDSWEDLVSSIDTIERKDDGTLEIYLTWKNGAISHHPSTITNKKCPQKMLQFYESHLTFRENE
# Experiments:
# [1] = target: histone H4, within the H3Kc9me3 mononucleosome (X. laevis, UniProt P62799 2-103); assay: cross-linking
# [2] = target: histone H2B, within the H3Kc9me3 mononucleosome (X. laevis, UniProt P02281 2-126); assay: cross-linking
binder,measurement,setting,value
B1,binding result,[1],binds
same,binding result,[2],binds
